From article PMC6433916

Key:
GST-C/EBPβ-bZIP (rat) [1] = biological target: T1, GST-C/EBPβ-bZIP (rat) (UniProt P21272); assay: fluorescence anisotropy competition; conditions: 25 mM Tris-HCl pH 7.6, 75 mM NaCl, 150 mM KCl, 5 mM MgCl2, 0.1 mM DTT, 0.01% NP-40, room temperature, 20 min
T1 sequence: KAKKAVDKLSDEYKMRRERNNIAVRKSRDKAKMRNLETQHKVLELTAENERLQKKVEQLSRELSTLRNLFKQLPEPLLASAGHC

GST-C/EBPβ-bZIP (rat) [2] = biological target: T1, GST-C/EBPβ-bZIP (rat); assay: fluorescence anisotropy; conditions: 25 mM Tris-HCl pH 7.6, 75 mM NaCl, 150 mM KCl, 5 mM MgCl2, 0.1 mM DTT, 0.01% NP-40, room temperature, 20 min

Row | Sequence | Ki (GST-C/EBPβ-bZIP (rat) [1]) | other results
1 | CCCTGATTGCAAAATAGGCTC (double strand) [BS2 competitor] | 66 nM | 
2 | CCCTGATTGCGCAATAGGCTC (double strand) [Consensus C/EBPβ competitor] |  | Ki (GST-C/EBPβ-bZIP (rat) [1]; vs 15 nM BS1 probe, 125 nM protein): 27 nM
3 | CCCTGCTTACACAATAGGCTC (double strand) [BS1 competitor] | 83 nM | 
4 | CCCTGCTTGCATAACAGGCTC (double strand) [HPV18 BS2L competitor] | 154 nM | 
5 | TTTGGCTTACACAATTGCTTT (double strand) [BS1 probe] |  | Kd (GST-C/EBPβ-bZIP (rat) [2]): 62 nM
